Reference: patent US20210324057A1

Experiments:
Test in all cases: GST pull-down, LC-MS/MS; score of protein identification
[1] = target: Electron transfer flavoprotein, α subunit
ATP synthase, O subunit = target: ATP synthase, O subunit
ATP synthase, β chain = target: ATP synthase, β chain
ATP synthase, β chain, sequence (P56480 47-529): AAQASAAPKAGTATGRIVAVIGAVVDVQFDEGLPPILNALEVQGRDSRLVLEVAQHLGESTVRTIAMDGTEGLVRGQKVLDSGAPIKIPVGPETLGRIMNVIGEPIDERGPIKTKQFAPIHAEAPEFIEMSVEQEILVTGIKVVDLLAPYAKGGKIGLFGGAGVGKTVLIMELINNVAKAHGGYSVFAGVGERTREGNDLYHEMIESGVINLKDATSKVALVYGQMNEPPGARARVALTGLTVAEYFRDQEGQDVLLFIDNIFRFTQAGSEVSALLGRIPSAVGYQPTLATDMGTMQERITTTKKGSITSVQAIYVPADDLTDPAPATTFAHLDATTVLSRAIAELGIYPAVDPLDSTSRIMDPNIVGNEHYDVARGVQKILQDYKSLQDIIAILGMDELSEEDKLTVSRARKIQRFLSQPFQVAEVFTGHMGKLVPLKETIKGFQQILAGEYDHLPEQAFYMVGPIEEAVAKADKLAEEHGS

ATP synthase, O subunit, sequence (Q9DB20 24-213): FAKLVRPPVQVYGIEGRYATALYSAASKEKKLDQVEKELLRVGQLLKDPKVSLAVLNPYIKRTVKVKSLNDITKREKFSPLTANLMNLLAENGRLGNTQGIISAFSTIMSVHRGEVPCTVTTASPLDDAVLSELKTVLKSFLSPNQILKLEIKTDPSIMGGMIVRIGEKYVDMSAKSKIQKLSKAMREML
Electron transfer flavoprotein, α subunit, sequence (Q99LC5 20-333): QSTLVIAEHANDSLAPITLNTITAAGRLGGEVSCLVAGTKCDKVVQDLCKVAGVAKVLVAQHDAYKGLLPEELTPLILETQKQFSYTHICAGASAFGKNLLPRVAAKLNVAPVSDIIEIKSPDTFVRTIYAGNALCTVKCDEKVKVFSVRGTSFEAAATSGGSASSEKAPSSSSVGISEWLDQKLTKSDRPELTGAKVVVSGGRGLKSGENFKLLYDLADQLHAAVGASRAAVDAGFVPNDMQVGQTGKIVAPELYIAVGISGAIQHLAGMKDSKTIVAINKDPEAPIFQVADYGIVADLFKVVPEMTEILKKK

“GST-LRRC8A (fusion protein comprised of the leucine rich C-terminus of LRRC8A and GST)” gave an Unused Score [1] of 11.6, an Unused Score (ATP synthase, O subunit) of 8.44 and an Unused Score (ATP synthase, β chain) of 5.94.
